In patent publication US20200268901A1 (Bristol-Myers Squibb, published 2020):
Where “and” joins values, the source holds several entries; their conditions need not be identical. Equal values may be shown once. Read-outs that look alike come from different tables or passages of the source.

T1: human CD73 on Calu6 cells (human, UniProt P21589 27-549)
T1 sequence (looked up): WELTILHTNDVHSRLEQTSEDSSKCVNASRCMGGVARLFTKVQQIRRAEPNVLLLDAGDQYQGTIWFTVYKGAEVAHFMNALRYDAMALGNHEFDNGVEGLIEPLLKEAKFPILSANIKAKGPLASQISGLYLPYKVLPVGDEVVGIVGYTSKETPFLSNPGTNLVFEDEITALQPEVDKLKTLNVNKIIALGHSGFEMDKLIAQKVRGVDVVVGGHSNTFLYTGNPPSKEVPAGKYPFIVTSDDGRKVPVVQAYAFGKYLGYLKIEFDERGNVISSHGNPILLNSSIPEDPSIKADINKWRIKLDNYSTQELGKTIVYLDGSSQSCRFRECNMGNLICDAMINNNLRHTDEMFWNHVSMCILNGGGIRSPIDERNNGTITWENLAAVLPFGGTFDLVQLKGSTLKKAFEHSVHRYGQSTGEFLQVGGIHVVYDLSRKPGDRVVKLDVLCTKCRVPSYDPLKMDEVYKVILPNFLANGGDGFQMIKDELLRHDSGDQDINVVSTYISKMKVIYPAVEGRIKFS

T2: N-hCD73-his (N-terminal domain of human CD73, residues 26-336) (human, UniProt P21589 26-336)
T2 construct: not shown: his tag
T2 sequence (looked up): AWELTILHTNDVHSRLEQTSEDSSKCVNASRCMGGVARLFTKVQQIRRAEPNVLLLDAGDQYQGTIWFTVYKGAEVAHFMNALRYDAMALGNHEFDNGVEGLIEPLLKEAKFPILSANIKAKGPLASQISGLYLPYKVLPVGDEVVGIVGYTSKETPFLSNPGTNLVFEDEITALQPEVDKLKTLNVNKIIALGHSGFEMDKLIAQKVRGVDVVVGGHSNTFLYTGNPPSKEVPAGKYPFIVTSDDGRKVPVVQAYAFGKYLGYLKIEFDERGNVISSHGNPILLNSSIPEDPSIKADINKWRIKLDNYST


Legend:
[1] = molecular target: T1, human CD73 on Calu6 cells; experiment: cell-based or functional assay
[2] = molecular target: T1, human CD73 on Calu6 cells; experiment: cell-based or functional assay; remark: listed apart in the source
[3] = molecular target: T1, human CD73 on Calu6 cells; experiment: cell-based or functional assay; remark: listed apart in the source
[4] = molecular target: T2, N-hCD73-his (N-terminal domain of human …); experiment: SPR (Biacore T100), mAb captured on protein A, N-hCD73-his analyte
Method: The affinity of the antibodies for human CD73 was measured to determine whether the change of the constant region affects them. The affinities were determined by Surface Plasmon Resonance (SPR) as follows. […] For these experiments, protein A (Pierce) was immobilized to a density of 3000-4000 RU on flow cells 1-4 of a CM5 sensor chip (GE Healthcare) using standard ethyl(dimethylaminopropyl) carbodiimide (EDC)/N-hydroxysuccinimide (NHS) chemistry, with ethanolamine blocking, in a running buffer of 0.01 M HEPES pH 7.4, 0.15 M NaCl, 3 mM EDTA, 0.005% v/v tween 20. […] The running buffer for the kinetic experiments was 10 mM sodium phosphate, 130 mM sodium chloride, 0.05% tween 20, pH 7.1. The surfaces were regenerated after each cycle using two 30 s pulses of 10 mM glycine pH 1.5 at a flow rate of 30 μl/min. Sensogram data was double-referenced and then fitted to a 1:1 Langmuir model using Biacore T100 evaluation software v2.0.4, to determine the association rate constant (ka), the dissociation rate constant (kd), and the equilibrium dissociation constant (KD).

[5] = molecular target: T1, human CD73 on Calu6 cells; experiment: cell-based or functional assay; remark: listed apart in the source

| Binder | T1/2 (hr) of CD73 internalization, Calu6 cells [2] | T1/2 (hr) of CD73 internalization, NCI-H292 cells [2] | Ymax (%) of CD73 internalization, Calu6 cells [2] | Ymax (%) of CD73 internalization, NCI-H292 cells [2] | EC50 (nM) of CD73 internalization, Calu6 cells, 2 h [3] | Ymax of CD73 internalization (% of 100 nM 11F11) [3] | Kd [4] | koff [4] | kon [4] | also measured |
| --- | --- | --- | --- | --- | --- | --- | --- | --- | --- | --- |
| CD73.4-IgG2.3G1.1f-KH (antibody, also called CD73.4-IgG2-C219S-IgG1.1f; CD73.4-IgG2CS-IgG1.1f) heavy: QVQLVESGGGVVQPGRSLRLSCAASGFTFSNYGMHWVRQAPGKGLEWVAVILYDGSNKYYPDSVKGRFTISRDNSKNTLYLQMNSLRAEDTAVYYCARGGSSWYPDSFDIWGQGTMVTVSSASTKGPSVFPLAPCSRSTSESTAALGCLVKDYFPEPVTVSWNSGALTSGVHTFPAVLQSSGLYSLSSVVTVPSSNFGTQTYTCNVDHKPSNTKVDKTVERKSCVECPPCPAPPVAGPSVFLFPPKPKDTLMISRTPEVTCVVVDVSHEDPEVKFNWYVDGVEVHNAKTKPREEQYNSTYRVVSVLTVLHQDWLNGKEYKCKVSNKALPSSIEKTISKAKGQPREPQVYTLPPSREEMTKNQVSLTCLVKGFYPSDIAVEWESNGQPENNYKTTPPVLDSDGSFFLYSKLTVDKSRWQQGNVFSCSVMHEALHNHYTQKSLSLSPGK light: not shown | 0.351 h | 0.276 h | 81% | 90.3% | – | – | – | – | – | T1/2 (hr) of CD73 internalization, Calu6 cells [1]: 0.566 h; T1/2 (hr) of CD73 internalization, NCI-H292 cells [1]: 0.263 h; T1/2 (hr) of CD73 internalization, NCI-H1437 cells [1]: 0.316 h; T1/2 (hr) of CD73 internalization, NCI-H1437 cells (no wash) [1]: 0.342 h; T1/2 (hr) of CD73 internalization, SNU-C1 cells [1]: 0.495 h; T1/2 (hr) of CD73 internalization, SNU-C1 cells (no wash) [1]: 1.02 h; Ymax (%) of CD73 internalization, Calu6 cells [1]: 76.8%; Ymax (%) of CD73 internalization, NCI-H292 cells [1]: 77.6% |
| CD73.4-IgG2.5 (antibody) heavy: QVQLVESGGGVVQPGRSLRLSCAASGFTFSNYGMHWVRQAPGKGLEWVAVILYDGSNKYYPDSVKGRFTISRDNSKNTLYLQMNSLRAEDTAVYYCARGGSSWYPDSFDIWGQGTMVTVSSASTKGPSVFPLAPSSRSTSESTAALGCLVKDYFPEPVTVSWNSGALTSGVHTFPAVLQSSGLYSLSSVVTVPSSNFGTQTYTCNVDHKPSNTKVDKTVERKCCVECPPCPAPPVAGPSVFLFPPKPKDTLMISRTPEVTCVVVDVSHEDPEVQFNWYVDGVEVHNAKTKPREEQFNSTFRVVSVLTVVHQDWLNGKEYKCKVSNKGLPAPIEKTISKTKGQPREPQVYTLPPSREEMTKNQVSLTCLVKGFYPSDIAVEWESNGQPENNYKTTPPMLDSDGSFFLYSKLTVDKSRWQQGNVFSCSVMHEALHNHYTQKSLSLSPGK light: not shown | 0.348 h | 0.306 h | 79% | 89.6% | – | – | – | – | – | – |
| CD73.4-IgG2.5G1.1f-KH (antibody) heavy: QVQLVESGGGVVQPGRSLRLSCAASGFTFSNYGMHWVRQAPGKGLEWVAVILYDGSNKYYPDSVKGRFTISRDNSKNTLYLQMNSLRAEDTAVYYCARGGSSWYPDSFDIWGQGTMVTVSSASTKGPSVFPLAPSSRSTSESTAALGCLVKDYFPEPVTVSWNSGALTSGVHTFPAVLQSSGLYSLSSVVTVPSSNFGTQTYTCNVDHKPSNTKVDKTVERKCCVECPPCPAPPVAGPSVFLFPPKPKDTLMISRTPEVTCVVVDVSHEDPEVKFNWYVDGVEVHNAKTKPREEQYNSTYRVVSVLTVLHQDWLNGKEYKCKVSNKALPSSIEKTISKAKGQPREPQVYTLPPSREEMTKNQVSLTCLVKGFYPSDIAVEWESNGQPENNYKTTPPVLDSDGSFFLYSKLTVDKSRWQQGNVFSCSVMHEALHNHYTQKSLSLSPGK light: not shown | 0.353 h | 0.299 h | 79.6% | 90.9% | – | – | – | – | – | – |
| 11F11 (antibody, human IgG2, kappa, V domains shown, anti-CD73, IgG2; also called 11F11(IgG2)) VH: QVQLVESGGGVVQPGRSLRLSCATSGFTFSNYGMHWVRQAPGKGLEWVAVILYDGSNKYYPDSVKGRFTISRDNSKNTLYLQMNSLRAEDTAVYYCARGGSSWYPDSFDIWGQGTMVTVSS VL: DIQMTQSPSSLSASVGDRVTITCRASQGISSWLAWYQQKPEKAPKSLIYAASSLQSGVPSRFSGSGSGTDFTLTISSLQPEDFATYYCQQYNSYPLTFGGGTKVEIKR | – | – | – | – | 0.58 nM | 98% | 1.6 nM and 0.56 nM | 0.00042 s⁻¹ and 0.00016 s⁻¹ | 260000 M⁻¹ s⁻¹ and 290000 M⁻¹ s⁻¹ | – |
| CD73.4-IgG2.5-plusTHT (antibody) heavy: QVQLVESGGGVVQPGRSLRLSCAASGFTFSNYGMHWVRQAPGKGLEWVAVILYDGSNKYYPDSVKGRFTISRDNSKNTLYLQMNSLRAEDTAVYYCARGGSSWYPDSFDIWGQGTMVTVSSASTKGPSVFPLAPSSRSTSESTAALGCLVKDYFPEPVTVSWNSGALTSGVHTFPAVLQSSGLYSLSSVVTVPSSNFGTQTYTCNVDHKPSNTKVDKTVERKCCVETHTCPPCPAPPVAGPSVFLFPPKPKDTLMISRTPEVTCVVVDVSHEDPEVQFNWYVDGVEVHNAKTKPREEQFNSTFRVVSVLTVVHQDWLNGKEYKCKVSNKGLPAPIEKTISKTKGQPREPQVYTLPPSREEMTKNQVSLTCLVKGFYPSDIAVEWESNGQPENNYKTTPPMLDSDGSFFLYSKLTVDKSRWQQGNVFSCSVMHEALHNHYTQKSLSLSPGK light: not shown | 0.287 h | 0.257 h | 80.2% | 89.6% | – | – | – | – | – | – |
| CD73.10-IgG2-C219S (antibody, anti-CD73; also called CD73.10-IgG2CS) heavy: QVQLVESGGGVVQPGRSLRLSCAASGFTFSNYGMHWVRQAPGKGLEWVAVIWYDESNKYYPDSVKGRFTISRDNSKNTLYLQMNSLRAEDTAVYYCARGGSSWYPDSFDIWGQGTMVTVSSASTKGPSVFPLAPCSRSTSESTAALGCLVKDYFPEPVTVSWNSGALTSGVHTFPAVLQSSGLYSLSSVVTVPSSNFGTQTYTCNVDHKPSNTKVDKTVERKSCVECPPCPAPPVAGPSVFLFPPKPKDTLMISRTPEVTCVVVDVSHEDPEVQFNWYVDGVEVHNAKTKPREEQFNSTFRVVSVLTVVHQDWLNGKEYKCKVSNKGLPAPIEKTISKTKGQPREPQVYTLPPSREEMTKNQVSLTCLVKGFYPSDIAVEWESNGQPENNYKTTPPMLDSDGSFFLYSKLTVDKSRWQQGNVFSCSVMHEALHNHYTQKSLSLSPG light: not shown | – | – | – | – | 0.67 nM | 99% | 6.2 nM and 8.3 nM | 0.0014 s⁻¹ and 0.0018 s⁻¹ | 220000 M⁻¹ s⁻¹ | % internalization, Calu6 cells [5]: 91%; % internalization, H228 cells [5]: 93%; % internalization, H2030 cells [5]: 85%; % internalization, HCC15 cells [5]: 91%; T1/2 min of internalization, Calu6 cells [5]: 3 min; T1/2 min of internalization, H228 cells [5]: 9.7 min; T1/2 min of internalization, H2030 cells [5]: 3.3 min; T1/2 min of internalization, HCC15 cells [5]: 2.6 min |
| CD73.10-IgG2-C219S-IgG1.1 (antibody, anti-CD73; also called CD73.10-IgG2CS-IgG1.1f) heavy: QVQLVESGGGVVQPGRSLRLSCAASGFTFSNYGMHWVRQAPGKGLEWVAVIWYDESNKYYPDSVKGRFTISRDNSKNTLYLQMNSLRAEDTAVYYCARGGSSWYPDSFDIWGQGTMVTVSSASTKGPSVFPLAPCSRSTSESTAALGCLVKDYFPEPVTVSWNSGALTSGVHTFPAVLQSSGLYSLSSVVTVPSSNFGTQTYTCNVDHKPSNTKVDKTVERKSCVECPPCPAPPVAGPSVFLFPPKPKDTLMISRTPEVTCVVVDVSHEDPEVKFNWYVDGVEVHNAKTKPREEQYNSTYRVVSVLTVLHQDWLNGKEYKCKVSNKALPSSIEKTISKAKGQPREPQVYTLPPSREEMTKNQVSLTCLVKGFYPSDIAVEWESNGQPENNYKTTPPMLDSDGSFFLYSKLTVDKSRWQQGNVFSCSVMHEALHNHYTQKSLSLSPG light: not shown | – | – | – | – | 0.87 nM | 99% | 5.7 nM and 6.8 nM | 0.0014 s⁻¹ and 0.0016 s⁻¹ | 240000 M⁻¹ s⁻¹ and 230000 M⁻¹ s⁻¹ | % internalization, Calu6 cells [5]: 91%; % internalization, H228 cells [5]: 92%; % internalization, H2030 cells [5]: 87%; % internalization, HCC15 cells [5]: 91%; T1/2 min of internalization, Calu6 cells [5]: 3.1 min; T1/2 min of internalization, H228 cells [5]: 9.4 min; T1/2 min of internalization, H2030 cells [5]: 4.3 min; T1/2 min of internalization, HCC15 cells [5]: 3 min |
